# Measured values reported in the supplement of paper PMC9112550, “Optimization of the antimicrobial peptide Bac7 by deep mutational scanning” (BMC Biology, 2022).
# Tested on: Escherichia coli TOP10
# Test: shrunken log2 fold change of peptide-encoding DNA abundance (4.5 h post-induction vs induction); higher = less antimicrobial activity (less host growth inhibition)
# Conditions: time post-induction: 4.5 h; library: site-saturation at positions 5, 18, 19, 20
# 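Note: peptides expressed intracellularly from a pBAD plasmid library in pooled LB shake-flask culture, induced with 0.3% L-arabinose, DNA abundance read by NGS, three biological replicates, DESeq2 with apeglm shrinkage.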
row,Sequence,shrunken log2 fold change
1,RRIRIRPPRLPRPRPRPENVPRP,0.267
2,RRIRNRPPRLPRPRPRPGIDPRP,-0.042
3,RRIRERPPRLPRPRPRPMTEPRP,-0.116
4,RRIRFRPPRLPRPRPRPVAPPRP,0.243
5,RRIRLRPPRLPRPRPRPACVPRP,0.131
6,RRIRERPPRLPRPRPRPGKHPRP,-0.324
7,RRIRVRPPRLPRPRPRPCWGPRP,-0.0908
8,RRIRERPPRLPRPRPRPFLPPRP,-0.701
9,RRIRTRPPRLPRPRPRPTQLPRP,-0.319
10,RRIRPRPPRLPRPRPRPFKRPRP,-0.00475
11,RRIRFRPPRLPRPRPRPMTRPRP,-0.173
12,RRIRFRPPRLPRPRPRPAQFPRP,0.156
13,RRIRQRPPRLPRPRPRPVGPPRP,0.231
14,RRIRSRPPRLPRPRPRPCQFPRP,-0.0444
15,RRIRDRPPRLPRPRPRPDYEPRP,-0.0367
16,RRIRGRPPRLPRPRPRPIVFPRP,0.194
17,RRIRERPPRLPRPRPRPHNMPRP,-0.51
18,RRIRPRPPRLPRPRPRPWGEPRP,0.113
19,RRIRERPPRLPRPRPRPVLDPRP,-0.12
20,RRIRHRPPRLPRPRPRPSSKPRP,-0.0453
21,RRIRYRPPRLPRPRPRPWHAPRP,-0.25
22,RRIRSRPPRLPRPRPRPIGTPRP,-0.25
23,RRIRPRPPRLPRPRPRPNELPRP,-0.313
24,RRIRNRPPRLPRPRPRPGGDPRP,0.00185
25,RRIRPRPPRLPRPRPRPRSIPRP,-0.149

row,Sequence,shrunken log2 fold change
1,RRIRIRPPRLPRPRPRPFDGPRP,-0.262
2,RRIRERPPRLPRPRPRPMWLPRP,-0.07
3,RRIRTRPPRLPRPRPRPHTKPRP,-0.0963
4,RRIRSRPPRLPRPRPRPYTWPRP,-0.989
5,RRIRIRPPRLPRPRPRPLYNPRP,-0.522
6,RRIRLRPPRLPRPRPRPGVWPRP,0.401
7,RRIRVRPPRLPRPRPRPNYKPRP,-0.509
8,RRIRSRPPRLPRPRPRPCGEPRP,0.385
9,RRIRQRPPRLPRPRPRPDCIPRP,-0.0167
10,RRIRHRPPRLPRPRPRPTLMPRP,-0.0715
11,RRIRGRPPRLPRPRPRPGNPPRP,0.134
12,RRIRYRPPRLPRPRPRPHLIPRP,-0.103
13,RRIRFRPPRLPRPRPRPNGMPRP,-0.0957
14,RRIRWRPPRLPRPRPRPGWWPRP,0.336
15,RRIRWRPPRLPRPRPRPYQAPRP,-0.0526
16,RRIRQRPPRLPRPRPRPTCTPRP,-0.0329
17,RRIRYRPPRLPRPRPRPQDFPRP,-0.481
18,RRIRFRPPRLPRPRPRPWVLPRP,-0.0735
19,RRIRFRPPRLPRPRPRPMSRPRP,0.0534
20,RRIRLRPPRLPRPRPRPYHCPRP,-0.575
21,RRIRWRPPRLPRPRPRPNTDPRP,-0.262
22,RRIRWRPPRLPRPRPRPLCAPRP,0.776
23,RRIRRRPPRLPRPRPRPAVQPRP,0.0814
24,RRIRSRPPRLPRPRPRPHYAPRP,-0.247
25,RRIRLRPPRLPRPRPRPSQDPRP,-0.282

row,Sequence,shrunken log2 fold change
1,RRIRLRPPRLPRPRPRPFMKPRP,-0.222
2,RRIRSRPPRLPRPRPRPPMLPRP,0.0967
3,RRIRFRPPRLPRPRPRPWCIPRP,-0.369
4,RRIRSRPPRLPRPRPRPCDVPRP,-0.0124
5,RRIRSRPPRLPRPRPRPINQPRP,-0.657
6,RRIRHRPPRLPRPRPRPNQEPRP,-0.00942
7,RRIRKRPPRLPRPRPRPRSLPRP,-0.00364
8,RRIRERPPRLPRPRPRPPWDPRP,-0.0062
9,RRIRRRPPRLPRPRPRPAFNPRP,0.201
10,RRIRGRPPRLPRPRPRPNTFPRP,0.00502
11,RRIRKRPPRLPRPRPRPAPHPRP,0.79
12,RRIRKRPPRLPRPRPRPPELPRP,0.23
13,RRIRTRPPRLPRPRPRPVMSPRP,-0.123
14,RRIRDRPPRLPRPRPRPLTEPRP,0.236
15,RRIRARPPRLPRPRPRPWGLPRP,0.617
16,RRIRERPPRLPRPRPRPLRRPRP,0.303
17,RRIRIRPPRLPRPRPRPSAVPRP,-0.306
18,RRIRERPPRLPRPRPRPVSHPRP,-0.0904
19,RRIRLRPPRLPRPRPRPQGDPRP,-0.0165
20,RRIRMRPPRLPRPRPRPDPTPRP,0.0984
21,RRIRPRPPRLPRPRPRPWPMPRP,-0.151
22,RRIRHRPPRLPRPRPRPVCYPRP,-0.663
23,RRIRLRPPRLPRPRPRPIHTPRP,-0.133
24,RRIRWRPPRLPRPRPRPDSRPRP,-0.251
25,RRIRQRPPRLPRPRPRPVMLPRP,-0.124

row,Sequence,shrunken log2 fold change
1,RRIRGRPPRLPRPRPRPIGRPRP,0.551
2,RRIRQRPPRLPRPRPRPGYNPRP,-0.185
3,RRIRDRPPRLPRPRPRPWLMPRP,-0.1
4,RRIRCRPPRLPRPRPRPEVTPRP,-0.0149
5,RRIRFRPPRLPRPRPRPTQWPRP,0.267
6,RRIRQRPPRLPRPRPRPGVPPRP,0.154
7,RRIRERPPRLPRPRPRPKFGPRP,0.37
8,RRIRSRPPRLPRPRPRPFTLPRP,-0.163
9,RRIRMRPPRLPRPRPRPESEPRP,3.39
10,RRIRERPPRLPRPRPRPENHPRP,-0.455
11,RRIRVRPPRLPRPRPRPQWIPRP,-0.895
12,RRIRMRPPRLPRPRPRPTNVPRP,-0.0668
13,RRIRWRPPRLPRPRPRPEIIPRP,0.231
14,RRIRMRPPRLPRPRPRPWIAPRP,-0.00608
15,RRIRLRPPRLPRPRPRPEAFPRP,0.0443
16,RRIRMRPPRLPRPRPRPNFWPRP,0.294
17,RRIRWRPPRLPRPRPRPPKIPRP,0.22
18,RRIRTRPPRLPRPRPRPEGDPRP,0.0354
19,RRIRNRPPRLPRPRPRPHFLPRP,-0.217
20,RRIRARPPRLPRPRPRPRVNPRP,0.631
21,RRIRGRPPRLPRPRPRPKFMPRP,0.316
22,RRIRARPPRLPRPRPRPEMAPRP,0.739
23,RRIRKRPPRLPRPRPRPWFNPRP,-0.209
24,RRIRWRPPRLPRPRPRPPLAPRP,1.63
25,RRIRCRPPRLPRPRPRPVSEPRP,0.00852

row,Sequence,shrunken log2 fold change
1,RRIRSRPPRLPRPRPRPIWIPRP,-0.0851
2,RRIRIRPPRLPRPRPRPGPTPRP,0.175
3,RRIRGRPPRLPRPRPRPFSEPRP,0.144
4,RRIRQRPPRLPRPRPRPPIHPRP,-0.0767
5,RRIRYRPPRLPRPRPRPIYNPRP,0.36
6,RRIRSRPPRLPRPRPRPTAMPRP,0.4
7,RRIRWRPPRLPRPRPRPSDEPRP,-0.117
8,RRIRGRPPRLPRPRPRPIGQPRP,0.0805
9,RRIRNRPPRLPRPRPRPEGNPRP,-0.0214
10,RRIRFRPPRLPRPRPRPTISPRP,-0.611
11,RRIRFRPPRLPRPRPRPMDQPRP,-0.247
12,RRIRHRPPRLPRPRPRPGQGPRP,-0.104
13,RRIRERPPRLPRPRPRPLIHPRP,-0.522
14,RRIRDRPPRLPRPRPRPLKYPRP,-0.529
15,RRIRRRPPRLPRPRPRPKGIPRP,0.268
16,RRIRKRPPRLPRPRPRPMTPPRP,0.334
17,RRIRKRPPRLPRPRPRPPHFPRP,0.519
18,RRIRLRPPRLPRPRPRPCEHPRP,-0.00776
19,RRIRERPPRLPRPRPRPDGFPRP,-0.134
20,RRIRDRPPRLPRPRPRPRTYPRP,-0.126
21,RRIRIRPPRLPRPRPRPHRWPRP,-0.0221
22,RRIRDRPPRLPRPRPRPRSQPRP,0.137
23,RRIRTRPPRLPRPRPRPRYRPRP,-0.0728
24,RRIRQRPPRLPRPRPRPEWHPRP,0.33
25,RRIRKRPPRLPRPRPRPFKIPRP,0.00571

row,Sequence,shrunken log2 fold change
1,RRIRVRPPRLPRPRPRPVVHPRP,-0.0292
2,RRIRCRPPRLPRPRPRPTNMPRP,-0.47
3,RRIRCRPPRLPRPRPRPAGCPRP,0.262
4,RRIRNRPPRLPRPRPRPVNGPRP,-0.372
5,RRIRFRPPRLPRPRPRPLWPPRP,0.264
6,RRIRIRPPRLPRPRPRPLKMPRP,-0.245
7,RRIRARPPRLPRPRPRPDMLPRP,-0.0619
8,RRIRYRPPRLPRPRPRPFVDPRP,-0.0498
9,RRIRMRPPRLPRPRPRPPSFPRP,-0.0206
10,RRIRNRPPRLPRPRPRPGDPPRP,0.306
11,RRIRPRPPRLPRPRPRPACCPRP,0.405
12,RRIRKRPPRLPRPRPRPHAWPRP,0.897
13,RRIRRRPPRLPRPRPRPRTTPRP,0.406
14,RRIRNRPPRLPRPRPRPTNFPRP,0.0354
15,RRIRCRPPRLPRPRPRPVLQPRP,1.24
16,RRIRGRPPRLPRPRPRPAMEPRP,1
17,RRIRFRPPRLPRPRPRPQSQPRP,0.0846
18,RRIRGRPPRLPRPRPRPKMSPRP,0.344
19,RRIRSRPPRLPRPRPRPGLRPRP,0.222
20,RRIRLRPPRLPRPRPRPIKKPRP,0.0365
21,RRIRLRPPRLPRPRPRPTFIPRP,-0.528
22,RRIRCRPPRLPRPRPRPGRQPRP,0.285
23,RRIRDRPPRLPRPRPRPWDTPRP,-0.029
24,RRIRYRPPRLPRPRPRPTNVPRP,-0.868
25,RRIRWRPPRLPRPRPRPIYVPRP,-0.0477
